{
  "source": "patent US8530619B2",
  "about": "“Identification of the hepcidin binding site on ferroportin” (University of Utah Research Foundation, priority 2007, dated 2013)",
  "key": {"I-HBD": {"target": "T1, I-HBD (Homo sapiens, UniProt Q9NP59)", "T1 construct": "made in house; host or cells: chemical synthesis", "T1 sequence (Q9NP59 with tags, fused parts or gaps limits assumed)": "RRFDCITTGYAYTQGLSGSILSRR", "experiment": "Effect of NEM on 125I-hepcidin binding to I-HBD", "experimental": "FIGS. 3A and 3B illustrate that the dissociation of the hepcidin/HBD complex is accelerated by low temperature. In FIG. 3A ^125I-hepcidin was added to I-HBD and a complex was allowed to form at 37° C. The I-HBD/^125I-hepcidin complex was washed and then incubated with an excess of non-radioactive hepcidin. The samples were then incubated at 37° C. (closed circle) or 4° C. (open circle) for the specified times and the amount of radioactivity remaining bound to the I-HBD was determined. The data are expressed as radioactivity at each time point relative to the amount bound at time zero. In FIG. 3B the ^125I-hepcidin/1-HBD complex was allowed to form at 37° C., the complex was then washed and incubated with the indicated concentration of NEM and the amount of bound radioactivity was determined after a four-hour incubation (closed circles). I-HBD alone was also incubated with the specified concentrations of NEM for 2 hours. The I-HBD beads were washed and then ^125I-hepcidin was added at 37° C. and the amount of bound radioactivity was determined after a four-hour incubation (open circles)."}, "hepcidin [1]": {"target": "T2, hepcidin (Homo sapiens, UniProt P81172)", "T2 construct": "generates the mature bioactive 25-amino acid form found in plasma and urine; made in house; host or cells: chemical synthesis", "T2 sequence (P81172 60-84)": "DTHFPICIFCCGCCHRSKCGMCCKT", "experiment": "Inhibition of hepcidin-mediated Fpn-GFP internalization in HEK293TFpn-GFP cells by peptides preincubated with hepcidin", "assay_type": "cell-based", "conditions": "peptide preincubated with hepcidin at equal molar amounts, 37° C.; HEK293TFpn-GFP cells", "experimental": "(§1) FIGS. 1A-D illustrate inhibition of hepcidin-mediated Fpn internalization by HBD. […] The HBD peptides and hepcidin were mixed at an equal molar ratio for two hours at 37° C. and then added to cells for one or 24 hours. Fpn internalization at one hour was analyzed by epifluorescence (upper panel) and the percentage of cells showing internalized Fpn-GFP at one and 24 hours was quantified (lower panel). The data represent the standard error of the mean from analyzing over 10 fields (20-30 cells) per sample. FIG. 1B illustrates HBD inhibition of Fpn-GFP internalization. Fpn-GFP expressing cells were incubated with hepcidin, hepcidin preincubated with HBD at 37° C. or hepcidin preincubated with HBD at 4° C. Fpn-GFP internalization at one (black bars) and 24 (grey bars) hours was quantified. The percentage of cells with internalized Fpn is shown. FIG. 1C illustrates that ^125I-hepcidin binds to HBD similarly to unlabeled hepcidin. ^125I-hepcidin was preincubated with HBD at 37° C. or 4° C. for one hour and then the mixture added to cells for one hour (black bars) or twenty-four hours (grey bars). The data are expressed as in FIG. 1B. FIG. 1D illustrates the fact that binding of hepcidin to HBD is reversible by low temperature. In the left panel the samples were treated as in FIG. 1C. In the right panel, the sample was incubated at 37° C. and was placed at 4° C. for four hours. The mixture was then incubated with cells at 37° C. and the internalization of Fpn-GFP was determined after one (black bars) or twenty four hours (grey bars).\n(§2) Incubation of HEK293TFpn-GFP cells with hepcidin results in the internalization of cell surface Fpn-GFP (2) and FIG. 1A. […] Previously it was determined that hepcidin binding to Fpn was temperature dependent (2).\n(§3) HEK293TFpn-GFP, a stable cell line in which Fpn-Green fluorescent protein (GFP) expression is regulated by the ecdysone promoter has been described previously (2).\n(§4) Peptides were synthesized at the DNA/Peptide Core Facility, University of Utah, Salt Lake City, Utah. The peptides were synthesized with two arginines added at the amino and carboxyl terminals. […] Microscope analysis was carried out using an Olympus BX51 microscope (Olympus, Tokyo, Japan). Images were acquired using Picture Frame 2.5 software (Olympus America, East Muskogee, Okla.). All experiments were repeated a minimum of 5 times.\n(§5) To characterize the interaction of the HBD with hepcidin, hepcidin was labeled at an iodinateable tyrosine to produce ^125I-hepcidin. Previously, it was shown that ^125I-hepcidin bound to Fpn indistinguishably from hepcidin that lacked the iodinateable tyrosine (2). HBD was then conjugated to agarose beads to produce immobilized HBD (I-HBD), which was then preincubated with ^125I-hepcidin at 37° C. prior to addition to Fpn-GFP expressing cells."}, "hepcidin [2]": {"target": "T3, hepcidin (Homo sapiens, UniProt P81172, M80Y)", "T3 construct": "generates the mature bioactive 25-amino acid form found in plasma and urine; made in house; host or cells: chemical synthesis", "T3 sequence (P81172 60-84 M80Y)": "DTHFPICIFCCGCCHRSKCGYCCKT", "experiment": "Inhibition of hepcidin-mediated Fpn-GFP internalization in HEK293TFpn-GFP cells by peptides preincubated with hepcidin", "assay_type": "cell-based", "conditions": "preincubation at 37° C.", "experimental": "as §1, §2, §3, §4, §5"}, "125I-hepcidin": {"target": "T4, 125I-hepcidin (Homo sapiens, UniProt P81172, M80Y)", "T4 construct": "hepcidin 25 synthesized with a tyrosine substitution at position M21 (Y-Hep 25); made in house; host or cells: chemical synthesis", "T4 sequence (P81172 60-84 M80Y)": "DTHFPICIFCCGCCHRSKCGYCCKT", "experiment": "125I-hepcidin binding to bead-immobilized peptides", "conditions": "37° C.; listed as HBD peptide containing the human Fpn mutation C326Y", "experimental": "FIGS. 2A-C illustrates that the binding of ^125I-hepcidin to HBD is specific and temperature dependent. In FIG. 2A peptides (HBD, scrambled-HBD or mutant (C326Y HBD) were conjugated to beads and ^125I-hepcidin was added to the bead-immobilized peptides (I-HBD) for 18 hours at 37° C. (black bars) or 4° C. (grey bars). The beads were washed and the amount of ^125I-hepcidin bound to the I-HBD was determined. In FIG. 2B a sub saturating concentration of ^125I-hepcidin (0.6 μg/ml) was incubated with I-HBD for 18 hours at 37° C. in the presence or absence of known concentrations of either hepcidin 25 (Hep 25-open circles) or hepcidin 25 synthesized with a tyrosine substitution at position M21 (Y-Hep 25) and the amount of radioactivity bound to the I-HBD determined. […]\nFIGS. 3A and 3B illustrate that the dissociation of the hepcidin/HBD complex is accelerated by low temperature. […] (open circle) for the specified times and the amount of radioactivity remaining bound to the I-HBD was determined. The data are expressed as radioactivity at each time point relative to the amount bound at time zero. In FIG. 3B the ^125I-hepcidin/1-HBD complex was allowed to form at 37° C., the complex was then washed and incubated with the indicated concentration of NEM and the amount of bound radioactivity was determined after a four-hour incubation (closed circles). […]"}, "[3]": {"target": "T5, I-HBD (hepcidin binding domain of ferroportin) (Homo sapiens, UniProt Q9NP59)", "T5 construct": "made in house; host or cells: chemical synthesis", "experiment": "Competition with 125I-hepcidin for binding to I-HBD beads", "experimental": "FIGS. 2A-C illustrates that the binding of ^125I-hepcidin to HBD is specific and temperature dependent. In FIG. 2A peptides (HBD, scrambled-HBD or mutant (C326Y HBD) were conjugated to beads and ^125I-hepcidin was added to the bead-immobilized peptides (I-HBD) for 18 hours at 37° C. (black bars) or 4° C. (grey bars). The beads were washed and the amount of ^125I-hepcidin bound to the I-HBD was determined. In FIG. 2B a sub saturating concentration of ^125I-hepcidin (0.6 μg/ml) was incubated with I-HBD for 18 hours at 37° C. in the presence or absence of known concentrations of either hepcidin 25 (Hep 25-open circles) or hepcidin 25 synthesized with a tyrosine substitution at position M21 (Y-Hep 25) and the amount of radioactivity bound to the I-HBD determined. In FIG. 2C sub saturating levels of ^125I-hepcidin were incubated with I-HBD at different temperatures.\nThe binding of ^125I-hepcidin could be reduced by addition of native non-radioactive hepcidin with an apparent K of approximately 200 nM (FIG. 2B). There was no binding of ^125I-hepcidin to I-HBD at 4° C. and ^125I-hepcidin bound to I-HBD at 37° C. was released when subsequently placed at 4° C. (data not shown).\nHBD peptides were immobilized by covalently attaching them to agarose beads. […] The fluid was removed and the radioactivity bound to beads was determined by gamma counting (Perkin/Elmer)."}, "Fpn": {"target": "T6, Fpn (Homo sapiens, UniProt Q9NP59)", "T6 sequence (Q9NP59 1-571)": "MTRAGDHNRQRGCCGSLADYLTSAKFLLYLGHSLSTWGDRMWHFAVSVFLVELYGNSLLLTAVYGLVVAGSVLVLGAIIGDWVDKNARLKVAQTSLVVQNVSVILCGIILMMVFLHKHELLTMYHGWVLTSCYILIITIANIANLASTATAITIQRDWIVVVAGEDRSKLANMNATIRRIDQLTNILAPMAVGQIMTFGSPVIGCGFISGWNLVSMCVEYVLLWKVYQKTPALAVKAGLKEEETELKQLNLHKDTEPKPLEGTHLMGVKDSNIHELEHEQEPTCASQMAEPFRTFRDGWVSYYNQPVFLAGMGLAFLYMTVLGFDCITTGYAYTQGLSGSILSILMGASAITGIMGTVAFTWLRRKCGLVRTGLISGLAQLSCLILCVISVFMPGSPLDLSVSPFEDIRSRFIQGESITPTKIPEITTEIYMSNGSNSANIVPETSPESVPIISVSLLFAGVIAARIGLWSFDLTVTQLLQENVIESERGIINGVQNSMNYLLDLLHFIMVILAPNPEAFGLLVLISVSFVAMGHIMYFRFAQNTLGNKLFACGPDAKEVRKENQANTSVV", "conditions": "reference (7); cited from earlier work"}, "serum hepcidin": {"tested_on": "serum hepcidin", "experiment": "Serum hepcidin levels after LPS injection, I-HBD assay", "assay_type": "in vivo", "conditions": "LPS injected mice", "experimental": "FIGS. 5A-E illustrate the hepcidin concentrations in mice and human sera. In FIG. 5A, different concentrations of serum were incubated with a known amount of ^125I-hepcidin and I-HBD for 18 hours at 37° C. The beads were washed and radioactivity bound to the beads was determined. A standard curve was determined by incubating known amounts of hepcidin with ^125I-hepcidin and HBD-beads. In FIG. 5B, sera was obtained from wild type mice (C57/Bl6) or from mice that were homozygous for a targeted gene deletion in HFE or homozygous or heterozygous for a targeted gene deletion in the HAMP gene. […] The beads were washed and the amount of radioactivity was determined. Serum hepcidin levels were calculated relative to a standard curve. […] Sera was obtained from the mice 10 hours later and the hepcidin concentration was determined as described in FIG. 5A. In FIG. 5D hepcidin levels were measured in different strains of mice. […] Hepcidin levels were determined as in FIG. 5A. The serum iron (SI), […] (TIBC) and transferrin saturation was calculated as described herein. Each sample was analyzed in triplicate and the error bars represent the standard deviation\nHBD peptides were immobilized by covalently attaching them to agarose beads. […] The fluid was removed and the radioactivity bound to beads was determined by gamma counting (Perkin/Elmer). […]"}},
  "note": "“Also recorded” adds a separate entry of the source. No end group written: not given here.",
  "data": [
    {"molecule": "CCN1C(=O)C=CC1=O", "note": "[NEM, N-ethylmaleimide]", "values": [
      {"measurement": "125I-hepcidin binding activity of I-HBD", "setting": "I-HBD; I-HBD treated with NEM before 125I-hepcidin", "value": "loss of ^125I-hepcidin binding activity"},
      {"measurement": "125I-hepcidin/I-HBD complex", "setting": "I-HBD; NEM added after complex formed at 37° C.", "value": "the complex was not affected"}
    ]},
    {"molecule": "HBD Mutant: Fpn peptide containing the C326Y mutation, RR-FDYITTGYAYTQGLSGSILS-RR (SEQ ID NO: 4) (RRFDYITTGYAYTQGLSGSILSRR; HBD Mutant)", "values": [
      {"measurement": "hepcidin-mediated internalization of Fpn-GFP", "setting": "hepcidin [1]", "value": "did not prevent hepcidin mediated Fpn-GFP internalization"},
      {"measurement": "Fpn-GFP internalization activity of 125I-hepcidin after preincubation with peptide", "setting": "hepcidin [2]", "value": "did not affect"},
      {"measurement": "125I-hepcidin binding to the peptide", "setting": "125I-hepcidin", "value": "did not bind ^125I-hepcidin"}
    ]},
    {"molecule": "HBD Scramble: same amino acid composition as HBD in randomized sequence, RR-ILSLFDAYCTGTQITGSGSY-RR (SEQ ID NO: 3) (RRILSLFDAYCTGTQITGSGSYRR; HBD Scramble)", "values": [
      {"measurement": "hepcidin-mediated internalization of Fpn-GFP", "setting": "hepcidin [1]", "value": "did not prevent Fpn-internalization"},
      {"measurement": "Fpn-GFP internalization activity of 125I-hepcidin after preincubation with peptide", "setting": "hepcidin [2]", "value": "did not affect"}
    ]},
    {"molecule": "Hep20: hepcidin derivative with the five amino terminal amino acids deleted (ICIFCCGCCHRSKCGMCCKT; not fully specified (N-terminus, C-terminus); ends and bridges not checked)", "values": [
      {"measurement": "binding to HBD / I-HBD", "setting": "[3]", "value": "nor do they bind to HBD; also recorded: does not bind to I-HBD"},
      {"measurement": "binding to Fpn", "setting": "Fpn", "value": "do not bind to Fpn"}
    ]},
    {"molecule": "lipopolysaccharide [LPS]", "values": [
      {"measurement": "hepcidin levels in sera", "setting": "serum hepcidin", "value": "two-fold increase"}
    ]}
  ]
}
